Measurements taken from patent US11242370B2, “Neuregulin-4 compounds and methods of use” (Eli Lilly and Company, priority 2019, dated 2022).
Marks after values point to notes of the source that are not given here.

Experiments:
human HER2/HER4 = molecular target: T1, human HER2/HER4 (Homo sapiens, UniProt Q15303); experiment: Human HER2/HER4 phospho-ERK 1/2 assay, purified proteins, CHO-K1 cells; assay type: cell-based
T1 construct: expressed in transfected cells
Experimental: (§1) A cell based assay utilizing CHO-K1 cells overexpressing human or rat HER receptors is used to determine activity of NRG4 compounds. CHO-K1 cells (ATCC) are grown in DMEM-F12 3:1 with 5% FBS with 20 mM HEPES, 40 μg/mL L-Proline, lx antibiotics and were split 1:5 every 2-3 days with TripLE Express (Gibco). Cells are transfected with plasmid DNA encoding HER receptors in pairs (hHER2-3, hHER2-4, rHER2-3 and rHER2-4) with Fugene 6 (Promega) according to the manufacturer's instructions. […] Transfected cells are selected with Puromycin (12 ug/ml) and Hygromycin (1 mg/ml) for 3-4 weeks and clonal lines are obtained by limited dilution cloning into 96 well plates. Clonal lines are selected by appropriate gene expression of HER2, HER3 or HER4 by Taqman method. Lines with appropriate receptor expression are confirmed by NRG1 induced phospho-ERK 1/2 responses. Clones are grown up, harvested, aliquoted into cryovials and then frozen under liquid nitrogen for long-term storage.
(§2) A phospho-ERK1/2 activity assay is utilized with CHO-K1 cells overexpressing human or rat HER receptors to determine potencies and selectivity of purified NRG4 compounds. CHO-K1 cell lines expressing the human or rat HER receptors are cultured with selection medium (DMEM-F12 3:1 with 5% FBS with 20 mM HEPES, 40 μg/mL L-Proline, 1× antibiotics, 12 μg/mL puromycin, 1 mg/mL Hygromycin B). On Day −1 (the day before phospho-ERK1/2 assay), cells are washed once with PBS, detached with enzyme free cell dissociation solution (GIBCO cat #13151-014), and resuspended in plating medium (DMEM-F12 3:1 with 20 mM HEPES, lx antibiotics, 0.2% FBS). Cells are plated in a 96-well Poly-D-Lysine coated plate (BD cat #354640) at 10,000 cells per 0.1 mL per well. Cells are cultured in a tissue culture incubator at 37° C. 5% CO2 overnight. On Day 1 (the day of pERK1/2 assay), plates are incubated at room temperature for 30 min. The culture media are removed followed by addition of 504, ligand at various concentrations diluted in PBS-20 mM HEPES-0.005% BSA. Native human NRG1 and NRG4 peptides are purchased from Reprokine (Tampa, Fla.). The stimulation time is 30 min (except for hHER2-4 1H6 line in which 15 min is used for stimulation). At the end of stimulation, ligands are removed and 704, Lysis buffer (made according to manufacturer's recipe, Perkin Elmer cat #ALSU-PERK-A10K) is added. Plates are incubated at room temperature for 10 min on plate shaker with 350 rpm agitation, then on ice for 1 hour without shaking. 304, of cell lysis is transferred to a 96-well white Optiplate (Perkin Elmer cat #6002290) for phospho-ERK1/2 assay. Briefly 7.5 μL acceptor beads are added to 30 μL lysis in Optiplate. The plate is covered with aluminum foil and incubated at room temperature for 1 hour on plate shaker with 350 rpm agitation. Then 7.5 μL donor beads are added and the plate is covered with aluminum foil and incubated at room temperature for 2 hours on plate shaker with 350 rpm agitation or at 4° C. for overnight (warm up plate at room temperature for 2 h before reading). Alpha signal data are obtained on an Envision instrument (Alpha Technology-compatible plate reader). Donor beads and acceptor beads are made according to assay protocol. The data shown are generated with either the AlphaScreen SureFire p-ERK1/2 (Thr202/Tyr204) assay kit (Cat #TGRES50k) or the AlphaLISA® SureFire® Ultra™ p-ERK 1/2 (Thr202/Tyr204) assay kit (Perkin Elmer cat #ALSU-PERK-A10K). The activity of the NRG1 peptide was similar in both types of assays. Raw data obtained from the Envision instrument is imported into GraphPad Prism software (version 7). The EC50 value is generated by a variable slope-four parameter dose response curve. The % of maximal NRG1 activity data are generated by expressing the average maximal raw data for the NRG4 compound over the average maximal raw data for the native human NRG1 per plate and multiplying by 100. Data are provided below in Tables 7-9. N values reflect number of independent assays run. […]

rat HER2/HER4 = molecular target: T2, rat HER2/HER4 (Rattus norvegicus, UniProt Q62956); experiment: Rat HER2/HER4 phospho-ERK 1/2 assay, purified proteins, CHO-K1 cells; assay type: cell-based
T2 construct: expressed in transfected cells
T2 sequence (Q62956 26-1308): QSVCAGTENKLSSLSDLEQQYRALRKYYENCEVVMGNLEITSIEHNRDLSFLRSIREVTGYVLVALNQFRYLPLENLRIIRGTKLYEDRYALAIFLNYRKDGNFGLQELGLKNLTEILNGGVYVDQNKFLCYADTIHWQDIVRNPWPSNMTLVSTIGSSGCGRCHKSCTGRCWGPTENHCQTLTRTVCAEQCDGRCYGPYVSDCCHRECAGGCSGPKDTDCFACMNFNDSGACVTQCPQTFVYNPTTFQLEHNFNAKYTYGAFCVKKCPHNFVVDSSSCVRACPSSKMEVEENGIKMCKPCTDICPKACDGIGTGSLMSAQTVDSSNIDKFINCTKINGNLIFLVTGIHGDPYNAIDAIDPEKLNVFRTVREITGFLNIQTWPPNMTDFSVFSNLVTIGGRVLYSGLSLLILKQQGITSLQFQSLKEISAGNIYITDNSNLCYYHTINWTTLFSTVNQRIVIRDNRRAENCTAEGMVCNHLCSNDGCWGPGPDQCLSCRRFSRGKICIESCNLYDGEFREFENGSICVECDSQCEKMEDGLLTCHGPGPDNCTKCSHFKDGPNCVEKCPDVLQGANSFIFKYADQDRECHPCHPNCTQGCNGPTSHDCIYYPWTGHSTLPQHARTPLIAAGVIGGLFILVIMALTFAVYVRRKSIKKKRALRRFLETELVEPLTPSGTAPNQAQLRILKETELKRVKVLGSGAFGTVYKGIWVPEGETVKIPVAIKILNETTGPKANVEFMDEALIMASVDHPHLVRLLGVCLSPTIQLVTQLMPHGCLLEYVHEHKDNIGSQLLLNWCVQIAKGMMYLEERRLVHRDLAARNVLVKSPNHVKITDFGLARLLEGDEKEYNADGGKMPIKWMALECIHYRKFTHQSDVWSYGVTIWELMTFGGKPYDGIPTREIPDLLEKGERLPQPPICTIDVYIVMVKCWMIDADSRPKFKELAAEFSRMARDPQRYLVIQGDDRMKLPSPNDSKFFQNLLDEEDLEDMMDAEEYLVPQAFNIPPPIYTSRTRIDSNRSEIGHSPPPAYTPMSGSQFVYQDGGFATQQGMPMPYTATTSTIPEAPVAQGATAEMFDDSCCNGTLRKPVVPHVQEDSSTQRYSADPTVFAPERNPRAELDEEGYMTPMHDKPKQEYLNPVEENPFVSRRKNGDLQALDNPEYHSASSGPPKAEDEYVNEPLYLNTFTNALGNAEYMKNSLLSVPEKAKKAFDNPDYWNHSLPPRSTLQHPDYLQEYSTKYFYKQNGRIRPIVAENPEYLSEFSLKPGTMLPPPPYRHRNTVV
T2 sequence (P06494 23-1257 partner): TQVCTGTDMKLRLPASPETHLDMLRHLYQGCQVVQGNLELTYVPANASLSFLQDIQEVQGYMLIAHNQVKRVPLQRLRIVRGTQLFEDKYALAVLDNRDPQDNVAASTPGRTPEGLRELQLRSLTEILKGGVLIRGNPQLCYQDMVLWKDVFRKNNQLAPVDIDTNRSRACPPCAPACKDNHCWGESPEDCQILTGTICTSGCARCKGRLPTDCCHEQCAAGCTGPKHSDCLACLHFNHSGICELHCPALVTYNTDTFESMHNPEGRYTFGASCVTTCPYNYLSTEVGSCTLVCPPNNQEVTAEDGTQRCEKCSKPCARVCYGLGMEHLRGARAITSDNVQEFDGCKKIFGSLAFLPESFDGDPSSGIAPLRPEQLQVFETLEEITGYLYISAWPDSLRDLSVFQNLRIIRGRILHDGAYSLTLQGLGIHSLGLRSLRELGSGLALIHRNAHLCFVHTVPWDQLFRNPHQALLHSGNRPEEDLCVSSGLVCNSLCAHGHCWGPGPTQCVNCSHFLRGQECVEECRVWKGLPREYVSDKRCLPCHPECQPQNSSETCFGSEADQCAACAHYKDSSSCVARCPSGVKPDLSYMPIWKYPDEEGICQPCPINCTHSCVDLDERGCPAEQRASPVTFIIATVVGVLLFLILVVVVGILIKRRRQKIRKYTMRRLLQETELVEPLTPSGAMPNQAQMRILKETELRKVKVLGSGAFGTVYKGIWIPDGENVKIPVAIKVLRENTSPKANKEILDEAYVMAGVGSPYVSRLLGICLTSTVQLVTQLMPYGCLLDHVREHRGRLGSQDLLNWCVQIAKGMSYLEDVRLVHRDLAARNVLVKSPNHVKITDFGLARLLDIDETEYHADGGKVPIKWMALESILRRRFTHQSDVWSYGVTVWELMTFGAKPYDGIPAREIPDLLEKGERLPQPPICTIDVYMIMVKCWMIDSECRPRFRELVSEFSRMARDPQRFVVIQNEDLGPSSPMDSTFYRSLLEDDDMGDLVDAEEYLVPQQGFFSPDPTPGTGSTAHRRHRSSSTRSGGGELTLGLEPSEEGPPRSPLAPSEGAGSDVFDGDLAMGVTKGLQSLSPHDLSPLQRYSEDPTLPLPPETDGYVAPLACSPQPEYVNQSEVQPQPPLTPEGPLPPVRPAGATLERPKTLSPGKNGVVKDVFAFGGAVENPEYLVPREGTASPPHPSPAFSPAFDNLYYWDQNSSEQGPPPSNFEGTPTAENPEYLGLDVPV
Experimental: as §1, §2

human HER2/HER3 = molecular target: T3, human HER2/HER3 (Homo sapiens, UniProt P21860); experiment: Human HER2/HER3 phospho-ERK 1/2 assay, purified proteins, CHO-K1 cells; assay type: cell-based; settings: purified proteins; phospho-ERK1/2
T3 construct: expressed in transfected cells
Experimental: as §1
as §2, with “assays.” for “assays. Raw data obtained from the Envision instrument is imported into GraphPad Prism software (version 7). The EC50 value is generated by a variable slope-four parameter dose response curve. The % of maximal NRG1 activity data are generated by expressing the average maximal raw data for the NRG4 compound over the average maximal raw data for the native human NRG1 per plate and multiplying by 100. Data are provided below in Tables 7-9. N values reflect number of independent assays run.”

rat HER2/HER3 = molecular target: T4, rat HER2/HER3 (Rattus norvegicus, UniProt Q62799); experiment: Rat HER2/HER3 phospho-ERK 1/2 assay, purified proteins, CHO-K1 cells; assay type: cell-based; settings: phospho-ERK1/2
T4 construct: expressed in transfected cells
T4 sequence (Q62799 20-1339): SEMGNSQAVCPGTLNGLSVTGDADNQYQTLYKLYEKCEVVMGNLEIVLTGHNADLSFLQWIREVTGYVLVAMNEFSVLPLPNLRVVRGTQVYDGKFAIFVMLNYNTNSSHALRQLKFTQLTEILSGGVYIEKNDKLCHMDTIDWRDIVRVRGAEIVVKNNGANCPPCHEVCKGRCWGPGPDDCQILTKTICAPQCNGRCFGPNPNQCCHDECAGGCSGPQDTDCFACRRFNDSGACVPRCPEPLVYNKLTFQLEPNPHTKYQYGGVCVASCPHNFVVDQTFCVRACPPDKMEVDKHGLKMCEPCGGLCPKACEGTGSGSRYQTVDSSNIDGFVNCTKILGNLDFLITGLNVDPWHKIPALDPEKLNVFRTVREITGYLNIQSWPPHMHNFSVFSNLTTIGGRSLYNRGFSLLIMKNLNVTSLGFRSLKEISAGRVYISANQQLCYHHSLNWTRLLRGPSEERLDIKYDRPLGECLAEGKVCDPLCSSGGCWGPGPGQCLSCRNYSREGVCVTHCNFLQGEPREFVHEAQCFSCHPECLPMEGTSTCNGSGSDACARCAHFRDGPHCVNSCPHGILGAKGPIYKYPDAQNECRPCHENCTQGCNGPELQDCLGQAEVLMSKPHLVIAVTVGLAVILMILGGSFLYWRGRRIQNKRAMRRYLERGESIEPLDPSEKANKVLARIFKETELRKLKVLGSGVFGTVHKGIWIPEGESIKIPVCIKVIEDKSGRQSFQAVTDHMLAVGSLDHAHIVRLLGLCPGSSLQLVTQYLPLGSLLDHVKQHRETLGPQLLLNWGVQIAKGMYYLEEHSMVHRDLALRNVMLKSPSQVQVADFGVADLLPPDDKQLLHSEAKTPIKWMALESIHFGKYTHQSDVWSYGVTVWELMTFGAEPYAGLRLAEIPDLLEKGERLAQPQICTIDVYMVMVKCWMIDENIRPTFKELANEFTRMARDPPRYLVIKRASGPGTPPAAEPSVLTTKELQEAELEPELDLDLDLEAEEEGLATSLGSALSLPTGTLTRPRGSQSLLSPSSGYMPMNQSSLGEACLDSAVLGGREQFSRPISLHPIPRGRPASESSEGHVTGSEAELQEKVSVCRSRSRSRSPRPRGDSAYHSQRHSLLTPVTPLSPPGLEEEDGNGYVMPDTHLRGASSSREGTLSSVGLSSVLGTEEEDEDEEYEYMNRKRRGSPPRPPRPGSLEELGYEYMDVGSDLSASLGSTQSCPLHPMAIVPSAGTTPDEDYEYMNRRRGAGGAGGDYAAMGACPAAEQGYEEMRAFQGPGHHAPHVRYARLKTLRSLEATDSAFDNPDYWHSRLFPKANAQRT
T4 sequence (P06494 23-1257 partner): as the sequence (P06494 23-1257 partner) above
Experimental: as §1
A phospho-ERK1/2 activity assay is utilized with CHO-K1 cells overexpressing human or rat HER receptors to determine potencies and selectivity of purified NRG4 compounds. CHO-K1 cell lines expressing the human or rat HER receptors are cultured with selection medium (DMEM-F12 3:1 with 5% FBS with 20 mM HEPES, 40 μg/mL L-Proline, 1× antibiotics, 12 μg/mL puromycin, 1 mg/mL Hygromycin B). On Day −1 (the day before phospho-ERK1/2 assay), cells are washed once with PBS, detached with enzyme free cell dissociation solution (GIBCO cat #13151-014), and resuspended in plating medium (DMEM-F12 3:1 with 20 mM HEPES, lx antibiotics, 0.2% FBS). Cells are plated in a 96-well Poly-D-Lysine coated plate (BD cat #354640) at 10,000 cells per 0.1 mL per well. […] Then 7.5 μL donor beads are added and the plate is covered with aluminum foil and incubated at room temperature for 2 hours on plate shaker with 350 rpm agitation or at 4° C. for overnight (warm up plate at room temperature for 2 h before reading). Alpha signal data are obtained on an Envision instrument (Alpha Technology-compatible plate reader). […]

[1] = tested on: rat model of heart failure with reduced ejection fraction (HFrEF); experiment: Rat MI model, Example 11 dose-response, echocardiography; assay type: in vivo
Experimental: A nonclinical efficacy pharmacology study is conducted in a rat model of heart failure with reduced ejection fraction (HFrEF) to identify dose-response relationship for Example 11.
Briefly, the rats are anesthetized and positively ventilated throughout the procedure. […] The left coronary artery is permanently ligated. The sham-operated animals undergo the same procedure except the silk suture is placed around the left coronary artery without being tied. All rats are individually housed in a temperature and humidity controlled room and maintained on a 12 hour light/dark cycle. Three weeks after surgery, rats undergo transthoracic echocardiography for determination of ejection fraction (EF %) and left ventricle dimensions (LVD) using a Vevo 2100 ultrasound system. Rats are randomized across treatment groups according to EF % and LVD.
Measurements of EF % and LVD are expressed as mean values±standard error (SE). Statistical analysis is performed with JMP® 13 software (SAS Institute, Inc.; Cary, N.C.) and Dunnett's Test is used for statistical comparisons across treatment groups. Statistical significance is accepted at P<0.05.
Two to three weeks after MI surgery, animals are allocated to treatment groups and treated with a single injection of vehicle (DPBS) or one of the 3 dose levels (0.3, 1, 3 mg/kg) of Example 11.

cynomolgus monkeys = experiment: Toxicology study in cynomolgus monkeys, cardiac tissue inspection; settings: male and female monkeys, single 3 mg/kg SC bolus injection
Experimental: (§3) Example 11 is administered in a single 3 mg/kg dose to male and female monkeys by SC bolus injection.

[2] = Plasma pharmacokinetics in rats (toxicology studies); settings: rat, in vivo, sc, 30 mg/kg
Experimental: as §3

[3] = Plasma pharmacokinetics in monkeys (toxicology studies); settings: cynomolgus monkey, in vivo, sc, 3 mg/kg
Experimental: as §3

rats = experiment: Toxicology study in rats, cardiac tissue inspection; settings: single SC injection of 30 mg/kg
[4] = maximal signal relative to native human NRG1 per plate
[5] = purified proteins, phospho-ERK1/2

B1: Example 11: NRG4 D1G/V22Q/E44K, (GGGGS)3 linker, SEQ ID NO: 19, fused to IgG Fc dimer SEQ ID NO: 8 and 9 (protein)
chain 1: GGGGSGGGGSGGGGSGHEEPCGPSHKSFCLNGGLCYQIPTIPSPFCRCVENYTGARCEKVFL
chain 2: ECPPCPAPPVAGPSVFLFPPKPKDTLMASRTPEVTCVVVDVSHEDPEVQFNWYVDGVEVHNAKTKPREEQFNSTFRVVSVLTVVHQDWLNGKEYKCKVSNKGLPAPIEKTISKTKGQPREPQVYTLPPSREEMTKNQVSLWCLVKGFYPSDIAVEWESNGQPENNYKTTPPVLDSDGSFFLYSKLTVDKSRWQQGNVFSCSVMHEALHNAYTQKSLSLSPG
chain 3: ECPPCPAPPVAGPSVFLFPPKPKDTLMASRTPEVTCVVVDVSHEDPEVQFNWYVDGVEVHNAKTKPREEQFNSTFRVVSVLTVVHQDWLNGKEYKCKVSNKGLPAPIEKTISKTKGQPREPQVYTLPPSREEMTKNQVSLSCAVKGFYPSDIAVEWESNGQPENNYKTTPPVLDSDGSFFLVSKLTVDKSRWQQGNVFSCSVMHEALHNAYTQKSLSLSPG
Human HER2/HER4; [4]
  % Maximal NRG1 activity: 79 ± 2 (N = 5) %
Human HER2/HER4; [5]
  EC50: 0.55 ± 0.11 nM
Rat HER2/HER4; [4]
  % Maximal NRG1 activity: 96 ± 2 (N = 2) %
Rat HER2/HER4; [5]
  EC50: 0.17 ± 0.06 nM
Human HER2/HER3
  EC50: > 1000 nM
Rat HER2/HER3
  EC50: > 1000 nM
[1]; 0.3 mg/kg single injection, 7 days after dosing
  Ejection Fraction: 50.1* %
[1]; 0.3 mg/kg single injection, 14 days after dosing
  Ejection Fraction: 42.6%
[1]; 0.3 mg/kg single injection, 21 days after dosing
  Ejection Fraction: 36.4%
[1]; 0.3 mg/kg single injection, Baseline (before dosing)
  Ejection Fraction: 45.4%
[1]; 1 mg/kg single injection, 7 days after dosing
  Ejection Fraction: 52.4* %
[1]; 1 mg/kg single injection, 14 days after dosing
  Ejection Fraction: 42.2%
[1]; 1 mg/kg single injection, 21 days after dosing
  Ejection Fraction: 39.7%
[1]; 1 mg/kg single injection, Baseline (before dosing)
  Ejection Fraction: 46.6%
[1]; 3 mg/kg single injection, 7 days after dosing
  Ejection Fraction: 54.7* %
[1]; 3 mg/kg single injection, 14 days after dosing
  Ejection Fraction: 54.0* %
[1]; 3 mg/kg single injection, 21 days after dosing
  Ejection Fraction: 39.6%
[1]; 3 mg/kg single injection, Baseline (before dosing)
  Ejection Fraction: 45.8%
[1]; 0.3, 1, 3 mg/kg single injection vs vehicle, course of the study (data not shown)
  LVD dilation: No differences in LVD dilation are observed across groups
Cynomolgus monkeys
  inspections of tissue (cardiac toxicity): cardiac degeneration and necrosis
[2]
  plasma concentration: undetectable at 96 hours
[3]
  time for detectable plasma concentrations to be cleared: > 168 h
rats
  inspections of tissue (cardiac toxicity): no evidence of cardiac degeneration and/or necroses
